Laboratory results reported in US20170306346.

Tests used:
[1] = target: T1, His-AtUBC31
T1 sequence (Q9C8X7 1-154, looked up): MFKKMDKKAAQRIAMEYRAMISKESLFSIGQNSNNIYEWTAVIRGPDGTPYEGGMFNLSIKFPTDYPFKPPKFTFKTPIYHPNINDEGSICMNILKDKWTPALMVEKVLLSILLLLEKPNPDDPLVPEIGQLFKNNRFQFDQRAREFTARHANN

[2] = target: His-AtUBC8, P35131
[3] = target: T2, His-AtUBC36, Q9FZ48
T2 chain: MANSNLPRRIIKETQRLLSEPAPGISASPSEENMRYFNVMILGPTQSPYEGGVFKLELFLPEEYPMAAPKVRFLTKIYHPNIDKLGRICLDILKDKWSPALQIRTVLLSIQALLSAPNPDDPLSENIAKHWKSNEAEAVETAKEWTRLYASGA

[4] = target: T3, His-AtUBC2, P42745
T3 chain: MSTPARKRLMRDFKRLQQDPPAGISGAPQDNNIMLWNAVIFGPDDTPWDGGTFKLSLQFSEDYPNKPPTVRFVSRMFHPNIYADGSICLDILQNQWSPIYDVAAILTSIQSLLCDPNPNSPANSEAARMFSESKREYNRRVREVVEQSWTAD

[5] = target: GST-MYC2-HA, Q39204
GST-MYC2-HA, Q39204, sequence (Q39204 whole entry): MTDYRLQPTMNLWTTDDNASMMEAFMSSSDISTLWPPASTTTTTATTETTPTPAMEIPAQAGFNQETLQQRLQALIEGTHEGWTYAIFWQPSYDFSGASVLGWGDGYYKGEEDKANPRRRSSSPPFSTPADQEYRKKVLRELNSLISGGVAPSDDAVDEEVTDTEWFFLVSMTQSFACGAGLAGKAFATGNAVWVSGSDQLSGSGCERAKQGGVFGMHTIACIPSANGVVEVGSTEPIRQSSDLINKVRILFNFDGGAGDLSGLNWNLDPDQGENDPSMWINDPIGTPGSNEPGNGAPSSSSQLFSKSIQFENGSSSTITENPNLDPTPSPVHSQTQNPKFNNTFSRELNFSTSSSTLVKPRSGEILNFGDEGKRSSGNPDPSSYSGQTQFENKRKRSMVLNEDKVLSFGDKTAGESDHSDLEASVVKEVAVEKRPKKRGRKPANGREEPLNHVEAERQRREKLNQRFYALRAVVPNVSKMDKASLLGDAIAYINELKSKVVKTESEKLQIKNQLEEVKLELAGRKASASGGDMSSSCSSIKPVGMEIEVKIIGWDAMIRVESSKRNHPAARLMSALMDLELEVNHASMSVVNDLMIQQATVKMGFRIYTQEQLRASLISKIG

[6] = target: myc-MYC2, Q39204
myc-MYC2, Q39204, sequence (Q39204 whole entry): as above

His-AtUBC8, P35131, sequence (P35131 whole entry): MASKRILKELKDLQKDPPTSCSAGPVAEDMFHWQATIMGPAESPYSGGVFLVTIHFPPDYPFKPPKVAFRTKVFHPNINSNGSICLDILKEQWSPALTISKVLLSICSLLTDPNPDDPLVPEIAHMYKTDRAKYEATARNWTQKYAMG

B1: MBP-PUB11-myc (protein)
chain: MAGGIVSPASLLDLIADIVEIPLNTGMFKKDCADLTRRVCLLTHLLEEIRDSTPIDSAASSSSENDWWSDLVVGLQAAKRLLSTARFQARDSSDGAAKRISFQFQCVTWKLEKALSNLPYDLYDISDEVGEQVELARSQLRRAMQRYGSLNSNKFSSALSEPMERDGFSNVIKIKAEEKLESVSETLHFGEEEEKQSSPPLRRSSSISLAYYLSKDADTDRLDKMVNKNTDESKKSDKLTIPVDFLCPVSLELMKDPVIVATGQTYERAYIQRWIDCGNLTCPKTQQKLENFTLTPNYVLRSLISRWCAEHNIEQPAGYINGRTKNSGDMSVIRALVQRLSSRSTEDRRNAVSEIRSLSKRSTDNRILIAEAGAIPVLVNLLTSEDVATQENAITCVLNLSIYENNKELIMFAGAVTSIVQVLRAGTMEARENAAATLFSLSLADENKIIIGGSGAIPALVDLLENGTPRGKKDAATALFNLCIYHGNKGRAVRAGIVTALVKMLSDSTRHRMVDEALTILSVLANNQDAKSAIVKANTLPALIGILQTDQTRNRENAAAILLSLCKRDTEKLITIGRLGAVVPLMDLSKNGTERGKRKAISLLELLRKACQ
- in vitro auto-ubiquitination of PUB11 with the UBC as E2 [1]: Each of these 4 UBCs was capable of supporting auto-ubiquitination of PUB10 and PUB11 in vitro although with varying degrees of activity
- in vitro auto-ubiquitination of PUB11 with the UBC as E2 [2]: Each of these 4 UBCs was capable of supporting auto-ubiquitination of PUB10 and PUB11 in vitro although with varying degrees of activity ... The highest activity was obtained when UBC8 served as the ubiquitin conjugating enzyme
- in vitro auto-ubiquitination of PUB11 with the UBC as E2 [3]: Each of these 4 UBCs was capable of supporting auto-ubiquitination of PUB10 and PUB11 in vitro although with varying degrees of activity
- in vitro auto-ubiquitination of PUB11 with the UBC as E2 [4]: Each of these 4 UBCs was capable of supporting auto-ubiquitination of PUB10 and PUB11 in vitro although with varying degrees of activity
- in vitro ubiquitination of MYC2 (E1, E2, Ub; Western blot) [5]: MYC2 is a substrate of PUB11 E3 ligase

B2: HA-PUB10 (protein)
chain: MAGGAITPDSLIGLIAEINEIPGNFGLFKKDCSDLARRVGLLTHLIEEIRDSSPPSESDASSSLNSHECDWWSDLVVGLQAAKRLLSSATSFQARESSDGAAKRISFQFQCVTWKLEKALGDLTYDRYDISDEVREQVELARLQLRRAMQRYGSLNSKKFSSGLSEPMEKDASSNRKVIEKLESIPETVHSLSDEKKFESPPPWKSSSVSLAFFLSKDGDDERLEKAVTENSDDSQKSDNLTIPEDFLCPISLELMKDPAIVSTGQTYERSFIQRWIDCGNLSCPKTQQKLENFTLTPNYVLRSLISQWCTKHNIEQPGGYMNGRTKNSDGSFRDLSGDMSAIRALVCKLSSQSIEDRRTAVSEIRSLSKRSTDNRILIAEAGAIPVLVKLLTSDGDTETQENAVTCILNLSIYEHNKELIMLAGAVTSIVLVLRAGSMEARENAAATLFSLSLADENKIIIGASGAIMALVDLLQYGSVRGKKDAATALFNLCIYQGNKGRAVRAGIVKPLVKMLTDSSSERMADEALTILSVLASNQVAKTAILRANAIPPLIDCLQKDQPRNRENAAAILLCLCKRDTEKLISIGRLGAVVPLMELSRDGTERAKRKANSLLELLRKSSRKLGSL
- myc-MYC2 protein level in double transgenic Arabidopsis seedlings (Western blot) [6]: induced expression of HA-PUB10 clearly resulted in a decrease in myc-MYC2 level

B3: MBP-PUB10 (C249A)-6myc (protein)
chain: MAGGAITPDSLIGLIAEINEIPGNFGLFKKDCSDLARRVGLLTHLIEEIRDSSPPSESDASSSLNSHECDWWSDLVVGLQAAKRLLSSATSFQARESSDGAAKRISFQFQCVTWKLEKALGDLTYDRYDISDEVREQVELARLQLRRAMQRYGSLNSKKFSSGLSEPMEKDASSNRKVIEKLESIPETVHSLSDEKKFESPPPWKSSSVSLAFFLSKDGDDERLEKAVTENSDDSQKSDNLTIPEDFLAPISLELMKDPAIVSTGQTYERSFIQRWIDCGNLSCPKTQQKLENFTLTPNYVLRSLISQWCTKHNIEQPGGYMNGRTKNSDGSFRDLSGDMSAIRALVCKLSSQSIEDRRTAVSEIRSLSKRSTDNRILIAEAGAIPVLVKLLTSDGDTETQENAVTCILNLSIYEHNKELIMLAGAVTSIVLVLRAGSMEARENAAATLFSLSLADENKIIIGASGAIMALVDLLQYGSVRGKKDAATALFNLCIYQGNKGRAVRAGIVKPLVKMLTDSSSERMADEALTILSVLASNQVAKTAILRANAIPPLIDCLQKDQPRNRENAAAILLCLCKRDTEKLISIGRLGAVVPLMELSRDGTERAKRKANSLLELLRKSSRKLGSL
- in vitro ubiquitination of MYC2 (E1, AtUBC8 as E2, His-ubiquitin; Western blot) [5]: The ubiquitination activity was greatly reduced when cysteine 249 was mutated to alanine 249

B4: MBP-PUB10-6myc (protein)
chain: MAGGAITPDSLIGLIAEINEIPGNFGLFKKDCSDLARRVGLLTHLIEEIRDSSPPSESDASSSLNSHECDWWSDLVVGLQAAKRLLSSATSFQARESSDGAAKRISFQFQCVTWKLEKALGDLTYDRYDISDEVREQVELARLQLRRAMQRYGSLNSKKFSSGLSEPMEKDASSNRKVIEKLESIPETVHSLSDEKKFESPPPWKSSSVSLAFFLSKDGDDERLEKAVTENSDDSQKSDNLTIPEDFLCPISLELMKDPAIVSTGQTYERSFIQRWIDCGNLSCPKTQQKLENFTLTPNYVLRSLISQWCTKHNIEQPGGYMNGRTKNSDGSFRDLSGDMSAIRALVCKLSSQSIEDRRTAVSEIRSLSKRSTDNRILIAEAGAIPVLVKLLTSDGDTETQENAVTCILNLSIYEHNKELIMLAGAVTSIVLVLRAGSMEARENAAATLFSLSLADENKIIIGASGAIMALVDLLQYGSVRGKKDAATALFNLCIYQGNKGRAVRAGIVKPLVKMLTDSSSERMADEALTILSVLASNQVAKTAILRANAIPPLIDCLQKDQPRNRENAAAILLCLCKRDTEKLISIGRLGAVVPLMELSRDGTERAKRKANSLLELLRKSSRKLGSL
- in vitro auto-ubiquitination of PUB10 with the UBC as E2 [1]: Each of these 4 UBCs was capable of supporting auto-ubiquitination of PUB10 and PUB11 in vitro although with varying degrees of activity
- in vitro auto-ubiquitination of PUB10 with the UBC as E2 [2]: Each of these 4 UBCs was capable of supporting auto-ubiquitination of PUB10 and PUB11 in vitro although with varying degrees of activity ... The highest activity was obtained when UBC8 served as the ubiquitin conjugating enzyme
- in vitro auto-ubiquitination of PUB10 with the UBC as E2 [3]: Each of these 4 UBCs was capable of supporting auto-ubiquitination of PUB10 and PUB11 in vitro although with varying degrees of activity
- in vitro auto-ubiquitination of PUB10 with the UBC as E2 [4]: Each of these 4 UBCs was capable of supporting auto-ubiquitination of PUB10 and PUB11 in vitro although with varying degrees of activity
- in vitro ubiquitination of MYC2 (E1, AtUBC8 as E2, His-ubiquitin; Western blot) [5]: MYC2 was indeed poly-ubiquitinated by PUB10 in vitro

B5: HA-PUB10 (C249A) (protein)
chain: MAGGAITPDSLIGLIAEINEIPGNFGLFKKDCSDLARRVGLLTHLIEEIRDSSPPSESDASSSLNSHECDWWSDLVVGLQAAKRLLSSATSFQARESSDGAAKRISFQFQCVTWKLEKALGDLTYDRYDISDEVREQVELARLQLRRAMQRYGSLNSKKFSSGLSEPMEKDASSNRKVIEKLESIPETVHSLSDEKKFESPPPWKSSSVSLAFFLSKDGDDERLEKAVTENSDDSQKSDNLTIPEDFLAPISLELMKDPAIVSTGQTYERSFIQRWIDCGNLSCPKTQQKLENFTLTPNYVLRSLISQWCTKHNIEQPGGYMNGRTKNSDGSFRDLSGDMSAIRALVCKLSSQSIEDRRTAVSEIRSLSKRSTDNRILIAEAGAIPVLVKLLTSDGDTETQENAVTCILNLSIYEHNKELIMLAGAVTSIVLVLRAGSMEARENAAATLFSLSLADENKIIIGASGAIMALVDLLQYGSVRGKKDAATALFNLCIYQGNKGRAVRAGIVKPLVKMLTDSSSERMADEALTILSVLASNQVAKTAILRANAIPPLIDCLQKDQPRNRENAAAILLCLCKRDTEKLISIGRLGAVVPLMELSRDGTERAKRKANSLLELLRKSSRKLGSL
- myc-MYC2 protein level in double transgenic Arabidopsis seedlings (Western blot) [6]: induced expression of PUB10 (C249A) mutant protein resulted in an increase of MYC2 level
